Experimental data as given in patent US20160235871A1, “Spect Radionuclide-labeled Trimeric Cycle RGD Peptide, Preparation Method Thereof and Imaging Method Thereof” (Bailing Cloud Biomedical Technologies Innovation, priority 2015, published 2016).
Read-outs that look alike come from different tables or passages of the source.

Assays:
[1] = test system: U87MG glioma; conditions: SPECT/CT
Experimental: The preparation of ^99mTc-4P-RGD3 for the research of biodistribution includes incorporating ^99mTc-4P-RGD3 solution into physiological saline until the activity concentration is 10-30 mCi/mL. The preparation of ^99mTc-4P-RGD3 for tumor imaging includes incorporating ^99mTc-4P-RGD3 solution into physiological saline until the activity concentration is about 10 mCi/mL. During the experiments, each of the animal is injected with about 0.1 mL of the solution.
Biodistribution and tumor imaging are performed under the guidance of US National Institutes of Health animal experiments (1985, NIH 86-23, Laboratory Animal Care). U87MG cells are purchased from US ATCC (Manassas, Va.). Cell culture conditions: DMEM medium (non-essential amino acids sodium pyruvate) containing 10% of fetal bovine serum and 1% of penicillin and streptomycin. The cells are cultured under 37° C. with 5% of CO2. When the cells are grown to 90% confluence, they grow exponentially. The cells can be grown to a single layer, multiple layers or split layers. Female athymic nu/nu nude mice aged 4-5 weeks are used for the experiments, 5×10^6 of tumor cells are incorporated into 0.1 mL of physiological saline and are planted to shoulder subcutaneous of the mice under sterile conditions. About 4 weeks after planting, the tumor cells grow to 0.1-0.5 g for the use of biodistribution and imaging.

[2] = Biodistribution in U87MG glioma nude mice; assay type: in vivo; conditions: female, athymic nu/nu nude, mouse, in vivo, iv, 3 uCi, total radioactivity
Experimental: (§1) U87MG cells are purchased from US ATCC (Manassas, Va.). Cell culture conditions: […] […] 7 random U87MG glioma nude mice (20-25 g) are selected. […] After 60 minutes, a great amount of sodium pentobarbital is injected for executing the mice. Blood samples are collected from the mouse hearts. Tumor, normal organs (brain, eyes, heart, spleen, lung, liver, kidney, muscle and intestine) and tumor tissues are collected and washed by saline. Then they are dried by absorbent tissue, weighed by Perkin Elmer Wizard 1480 γ counter (Shelton, Conn.). The organ intake is measured by the percentage of the injection dose per gram of the tissue (% ID/g).

[3] = test system: U87MG glioma; assay: Biodistribution in U87MG glioma nude mice; assay type: in vivo
Experimental: as §1

[4] = normal mice, research period over 2 hours
Experimental: X. Normal mice (n=2) are selected for the metabolism research of the stability of ^99mmTc-4P-RGD3 in vivo, Each animal is injected with about 10 MBq of ^99mTc-4P-RGD3. The bladders are squeezed manually after 30 minutes and 120 minutes, respectively. The urine samples are collected and are mixed with 50% aqueous acetonitrile with the same volume. The mixture is centrifilged under 8,000 rpm. The supernatant is collected and is filtered by a 0.20 μm Millex-LG filter. The filtrate is analyzed by the HPLC. The fecal samples 120 minutes after the injection is collected, and is treated for homogenization by 20% of aqueous acetonitrile. The obtained mixture is rotated for about 5 minutes and then is centrifuged under 8,000 rpm. The supernatant is collected and is filtered by a 0.20 μm. Millex-LG filter. The filtrate is analyzed by the HPLC.

With `N=C(N)NCCC[C@@H]1NC(=O)[C@H](CCCCNC(=O)CCOCCOCCOCCOCCNC(=O)CCC(CCC(=O)NCCOCCOCCOCCOCCC(=O)NCCCC[C@@H]2NC(=O)[C@@H](Cc3ccccc3)NC(=O)[C@H](CC(=O)O)NC(=O)CNC(=O)[C@H](CCCNC(=N)N)NC2=O)(CCC(=O)NCCOCCOCCOCCOCCC(=O)NCCCC[C@@H]2NC(=O)[C@@H](Cc3ccccc3)NC(=O)[C@H](CC(=O)O)NC(=O)CNC(=O)[C@H](CCCNC(=N)N)NC2=O)NC(=O)CCOCCOCCOCCOCCNC(=O)c2ccc(NN)nc2)NC(=O)[C@@H](Cc2ccccc2)NC(=O)[C@H](CC(=O)O)NC(=O)CNC1=O` (stereo partly drawn) [^99mTc-4P-RGD3, metal not drawn] the “Radioactive accumulation in animal abdomen (especially in intestines)” value ([1]; compared with ^99mTc-3P-RGD2 and ^99mTc-Galacto-RGD2) was “the lowest”, the “Tumor intake based on the SPECT quantization” value ([1]; glioma nude mice, about 37 MBq injected) was “about 7.34 ID/g” and the tissue uptake at 1 h ([2]; U87MG glioma nude mice, 60 minutes after tail vein injection, read-out: Organ intake, Blood) was 0.53 ± 0.14 %ID/g. It also gave a tissue uptake at 1 h ([2]; U87MG glioma nude mice, 60 minutes after tail vein injection, read-out: Organ intake, Brain) of 0.14 ± 0.01 %ID/g, a tissue uptake at 1 h ([2]; U87MG glioma nude mice, 60 minutes after tail vein injection, read-out: Organ intake, Eye) of 0.46 ± 0.23 %ID/g and a tissue uptake at 1 h ([2]; U87MG glioma nude mice, 60 minutes after tail vein injection, read-out: Organ intake, Heart) of 0.56 ± 0.19 %ID/g. The tissue uptake at 1 h ([2]; U87MG glioma nude mice, 60 minutes after tail vein injection, read-out: Organ intake, Kidney) was 9.1 ± 2.31 %ID/g, the tissue uptake at 1 h ([2]; U87MG glioma nude mice, 60 minutes after tail vein injection, read-out: Organ intake, Liver) was 1.92 ± 0.62 %ID/g and the tissue uptake at 1 h ([2]; U87MG glioma nude mice, 60 minutes after tail vein injection, read-out: Organ intake, Lung) was 1.14 ± 0.41 %ID/g. The tissue uptake at 1 h ([2]; U87MG glioma nude mice, 60 minutes after tail vein injection, read-out: Organ intake, Muscle) was 0.35 ± 0.17 %ID/g, the tissue uptake at 1 h ([2]; U87MG glioma nude mice, 60 minutes after tail vein injection, read-out: Organ intake, Small Intestine) was 1.65 ± 0.37 %ID/g and the tissue uptake at 1 h ([2]; U87MG glioma nude mice, 60 minutes after tail vein injection, read-out: Organ intake, Spleen) was 1.33 ± 0.52 %ID/g. The tissue uptake at 1 h ([2]; U87MG glioma nude mice, 60 minutes after tail vein injection, read-out: Tumor intake) was 7.34 ± 1.66 %ID/g, the “Intake background in organs of the whole body (intestine, liver, lung, muscle, spleen, kidney)” value ([3]; 60 minutes after injection, compared with ^99mTc-3P-RGD2 and ^99mTc-Galacto-RGD2) was “significantly decreased” and the Tumor intake ([3]; U87MG glioma nude mice, 60 minutes after tail vein injection) was 7.34±1.66 % ID/g. The “Metabolites detected in the urine samples and the fecal samples (radio-HPLC)” value [4] was “no metabolites”.
Molecule `N=C(N)NCCC[C@@H]1NC(=O)[C@H](CCCCNC(=O)[C@H]2O[C@@H](CNC(=O)COCCOCCn3cc(CNC(=O)CC[C@H](NC(=O)c4ccc(NN)nc4)C(=O)NCc4cn(CCOCCOCC(=O)NC[C@@H]5O[C@H](C(=O)NCCCC[C@@H]6NC(=O)[C@@H](Cc7ccccc7)NC(=O)[C@H](CC(=O)O)NC(=O)CNC(=O)[C@H](CCCNC(=N)N)NC6=O)[C@H](O)[C@H](O)[C@H]5O)nn4)nn3)[C@H](O)[C@@H](O)[C@H]2O)NC(=O)[C@@H](Cc2ccccc2)NC(=O)[C@H](CC(=O)O)NC(=O)CNC1=O` [^99mTc-Galacto-RGD2, metal not drawn] has a tissue uptake at 1 h ([2]; Organ intake, Blood) of 0.56 ± 0.25 %ID/g, a tissue uptake at 1 h ([2]; Organ intake, Brain) of 0.35 ± 0.28 %ID/g and a tissue uptake at 1 h ([2]; Organ intake, Eye) of 0.81 ± 0.39 %ID/g. For the same molecule, the tissue uptake at 1 h ([2]; Organ intake, Heart) was 1.27 ± 0.61 %ID/g, the tissue uptake at 1 h ([2]; Organ intake, Kidney) was 11.7 ± 4.06 %ID/g and the tissue uptake at 1 h ([2]; Organ intake, Liver) was 3.07 ± 2.14 %ID/g. It also gave a tissue uptake at 1 h ([2]; Organ intake, Lung) of 2.93 ± 0.94 %ID/g, a tissue uptake at 1 h ([2]; Organ intake, Muscle) of 0.88 ± 0.34 %ID/g and a tissue uptake at 1 h ([2]; Organ intake, Small Intestine) of 5.45 ± 1.47 %ID/g. For the same molecule, the tissue uptake at 1 h ([2]; Organ intake, Spleen) was 1.99 ± 0.71 %ID/g, the tissue uptake at 1 h ([2]; Tumor intake) was 6.86 ± 1.33 %ID/g and the Tumor intake ([3]; mouse, in vivo) was 6.86±1.33 % ID/g.
Work on `N=C(N)NCCC[C@@H]1NC(=O)[C@H](CCCCNC(=O)CCOCCOCCOCCOCCNC(=O)CC[C@H](NC(=O)CCOCCOCCOCCOCCNC(=O)c2ccc(NN)nc2)C(=O)NCCOCCOCCOCCOCCC(=O)NCCCC[C@@H]2NC(=O)[C@@H](Cc3ccccc3)NC(=O)[C@H](CC(=O)O)NC(=O)CNC(=O)[C@H](CCCNC(=N)N)NC2=O)NC(=O)[C@@H](Cc2ccccc2)NC(=O)[C@H](CC(=O)O)NC(=O)CNC1=O` [^99mTc-3P-RGD2, metal not drawn] yielded a tissue uptake at 1 h ([2]; Organ intake, Blood) of 0.47 ± 0.06 %ID/g, a tissue uptake at 1 h ([2]; Organ intake, Brain) of 0.17 ± 0.03 %ID/g and a tissue uptake at 1 h ([2]; Organ intake, Eye) of 1.4 ± 0.13 %ID/g. The tissue uptake at 1 h ([2]; Organ intake, Heart) was 1.67 ± 0.15 %ID/g, the tissue uptake at 1 h ([2]; Organ intake, Kidney) was 12.3 ± 1.09 %ID/g and the tissue uptake at 1 h ([2]; Organ intake, Liver) was 2.92 ± 0.77 %ID/g. For the same molecule, the tissue uptake at 1 h ([2]; Organ intake, Lung) was 4.25 ± 0.63 %ID/g, the tissue uptake at 1 h ([2]; Organ intake, Muscle) was 1.12 ± 0.15 %ID/g and the tissue uptake at 1 h ([2]; Organ intake, Spleen) was 3.11 ± 0.18 %ID/g. For the same molecule, the tissue uptake at 1 h ([2]; Tumor intake) was 7.24 ± 0.95 %ID/g and the Tumor intake ([3]; mouse, in vivo) was 7.24±0.95 % ID/g.
